# Values quoted from earlier work as cited in PMC7109197.
# Where two headings read alike, the source gives them in different places.
# Assays:
# Assay in all cases: NMR
# [1] = molecular target: cardiac troponin C N-domain (Homo sapiens) (UniProt P63316)
# [2] = molecular target: cardiac troponin C N-domain (Homo sapiens) (UniProt P63316); remark: listed apart in the source
# [3] = molecular target: cardiac troponin C CTD (Homo sapiens) (UniProt P63316)
# [4] = molecular target: cardiac troponin C CTD (Homo sapiens) (UniProt P63316); remark: listed apart in the source
substance,measurement,setting,value
cTnI switch peptide switch peptide (from UniProt P19429),Kd,[1],600 µM
same,Kd,[2],370 µM
cardiac troponin I 34-71 (from UniProt P19429),Kd,[3],3 µM
same,Kd,[4],< 1 µM
